Assay results published in PMC10450164.

Experiments:
Experiment in all cases: ITC
TFAP2B DBD-HSH WT = TFAP2B DBD-HSH WT (Homo sapiens, UniProt Q92481 219-457)
TFAP2A DBD-HSH WT = TFAP2A DBD-HSH WT (Homo sapiens, UniProt P05549 203-420)
TFAP2A R217S = TFAP2A R217S (Homo sapiens, UniProt P05549 203-420, R217S)
TFAP2B V336I = TFAP2B V336I (Homo sapiens, UniProt Q92481 219-457, V336I)
TFAP2A G262E = TFAP2A G262E (Homo sapiens, UniProt P05549 203-420, G262E)
TFAP2B K276R = TFAP2B K276R (Homo sapiens, UniProt Q92481 219-457, K276R)
Sequence of TFAP2B K276R (Q92481 219-457 K276R): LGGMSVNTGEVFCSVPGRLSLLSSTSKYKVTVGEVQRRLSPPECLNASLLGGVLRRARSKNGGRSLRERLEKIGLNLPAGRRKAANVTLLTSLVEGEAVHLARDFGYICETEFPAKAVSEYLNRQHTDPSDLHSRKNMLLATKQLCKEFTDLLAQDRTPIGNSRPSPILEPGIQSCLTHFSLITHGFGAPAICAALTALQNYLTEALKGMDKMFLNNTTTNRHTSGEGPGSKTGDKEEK

TFAP2B R300C = TFAP2B R300C (Homo sapiens, UniProt Q92481 219-457, R300C)
Sequence of TFAP2B R300C (Q92481 219-457 R300C): as the sequence (Q92481 219-457 K276R) above, with R58K, R82C counted along it

TFAP2B L284S = TFAP2B L284S (Homo sapiens, UniProt Q92481 219-457, L284S)
Sequence of TFAP2B L284S (Q92481 219-457 L284S): as the sequence (Q92481 219-457 K276R) above, with R58K, L66S counted along it

TFAP2B R236C = TFAP2B R236C (Homo sapiens, UniProt Q92481 219-457, R236C)
Sequence of TFAP2B R236C (Q92481 219-457 R236C): as the sequence (Q92481 219-457 K276R) above, with R18C, R58K counted along it

TFAP2B R285Q = TFAP2B R285Q (Homo sapiens, UniProt Q92481 219-457, R285Q)
Sequence of TFAP2B R285Q (Q92481 219-457 R285Q): as the sequence (Q92481 219-457 K276R) above, with R58K, R67Q counted along it

Sequence of TFAP2A DBD-HSH WT (P05549 203-420): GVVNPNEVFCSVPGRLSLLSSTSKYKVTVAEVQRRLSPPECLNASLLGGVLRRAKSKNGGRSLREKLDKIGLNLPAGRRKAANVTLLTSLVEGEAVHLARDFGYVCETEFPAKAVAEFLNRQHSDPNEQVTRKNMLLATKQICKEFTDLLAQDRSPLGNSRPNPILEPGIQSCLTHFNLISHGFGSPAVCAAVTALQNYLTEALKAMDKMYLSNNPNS
Sequence of TFAP2B DBD-HSH WT (Q92481 219-457): as the sequence (Q92481 219-457 K276R) above, with R58K counted along it
Sequence of TFAP2B V336I (Q92481 219-457 V336I): as the sequence (Q92481 219-457 K276R) above, with R58K, V118I counted along it
Sequence of TFAP2A G262E (P05549 203-420 G262E): as the sequence (P05549 203-420) above, with G60E counted along it
Sequence of TFAP2A R217S (P05549 203-420 R217S): as the sequence (P05549 203-420) above, with R15S counted along it

B1: CGA (GCC(N3)GGC) (dsDNA)
DNA 1: GTGCCCGAGGCAG
DNA 2: CTGCCTCGGGCAC
For B1, which Kd (TFAP2B DBD-HSH WT) is on record?
Its Kd is 18 ± 2 nM.

What about the Kd (TFAP2A DBD-HSH WT) of the same binder?
Its Kd is 19 ± 1 nM.

Does B1 bind (TFAP2A R217S)?
Result: no binding

What about the Kd (TFAP2B V336I) of the same binder?
Its Kd is 44 ± 9 nM.

What about the Kd (TFAP2A G262E) of the same binder?
Its Kd is 129 ± 22 nM.

What about the Kd (TFAP2B K276R) of the same binder?
Its Kd is 382 ± 36 nM.

And the Kd (TFAP2B R300C)?
The Kd was 88 ± 20 nM.

Does B1 bind (TFAP2B L284S)?
Result: no binding

Does B1 bind (TFAP2B R236C)?
Result: no binding

What about the Kd (TFAP2B R285Q) of the same binder?
The Kd was 178 ± 43 nM.

B2: cCC/GGC (dsDNA)
DNA 1: GTCCCCGAGGCAG
DNA 2: CTGCCTCGGGGAC
B2 was tested. Which Kd (TFAP2B DBD-HSH WT) did it give?
Its Kd is 55 ± 7 nM.

And the Kd (TFAP2A DBD-HSH WT)?
The Kd was 78 ± 16 nM.

B3: aCC/GGC (dsDNA)
DNA 1: GTACCCGAGGCAG
DNA 2: CTGCCTCGGGTAC
With B3 as the binder, how does the Kd (TFAP2B DBD-HSH WT) read?
Its Kd is 313 ± 69 nM.

And the Kd (TFAP2A DBD-HSH WT)?
The Kd was 373 ± 46 nM.

B4: tCC/GGC (dsDNA)
DNA 1: GTTCCCGAGGCAG
DNA 2: CTGCCTCGGGAAC
How did the Kd (TFAP2B DBD-HSH WT) turn out when B4 was run?
The Kd was 248 ± 49 nM.

And the Kd (TFAP2A DBD-HSH WT)?
Its Kd is 565 ± 87 nM.

B5: cCC/GGg (dsDNA)
DNA 1: GTCCCCGAGGGAG
DNA 2: CTCCCTCGGGGAC
With B5 as the binder, how does the Kd (TFAP2B DBD-HSH WT) read?
Its Kd is 355 ± 57 nM.

What about the Kd (TFAP2A DBD-HSH WT) of the same binder?
Its Kd is 336 ± 53 nM.

B6: TGA (dsDNA)
DNA 1: GTGCCTGAGGCAG
DNA 2: CTGCCTCAGGCAC
What does the source list for B6?
Kd (TFAP2B DBD-HSH WT): 19 ± 2 nM; Kd (TFAP2A DBD-HSH WT): 17 ± 1 nM

B7: GCt/GGC (dsDNA)
DNA 1: GTGCTCGAGGCAG
DNA 2: CTGCCTCGAGCAC
Which Kd (TFAP2B DBD-HSH WT) does the source give for B7 here?
The Kd was 461 ± 71 nM.

And the Kd (TFAP2A DBD-HSH WT)?
Its Kd is 694 ± 71 nM.

B8: N4 (4 bp spacer) (dsDNA)
DNA 1: GTGCCCGATGGCAG
DNA 2: CTGCCATCGGGCAC
What does the source list for B8?
Kd (TFAP2B DBD-HSH WT): 340 ± 17 nM; Kd (TFAP2A DBD-HSH WT): 341 ± 20 nM

B9: GmCC/GGC (dsDNA)
DNA 1: GTGCCCGAGGCAG
DNA 2: CTGCCTCGGGCAC
modifications: methylcytosine at position 4 of strand 1; second strand methylation not stated
Which results are given for B9?
Kd (TFAP2B DBD-HSH WT): 299 ± 22 nM; Kd (TFAP2A DBD-HSH WT): 347 ± 3 nM

B10: GCmC/GGC (dsDNA)
DNA 1: GTGCCCGAGGCAG
DNA 2: CTGCCTCGGGCAC
modifications: methylcytosine at position 5 of strand 1; second strand methylation not stated
Which results are given for B10?
Kd (TFAP2B DBD-HSH WT): 126 ± 12 nM; Kd (TFAP2A DBD-HSH WT): 107 ± 3 nM
